Data as given in patent US20190169308A1 (ALLIGATOR BIOSCIENCE, published 2019).

T1: 5T4-Fc (human, UniProt Q13641 32-355, limits assumed)
T1 construct: obtained from Peter L. Stern, University of Manchester; also called h5T4-Fc; recombinant 5T4
T1 sequence (looked up): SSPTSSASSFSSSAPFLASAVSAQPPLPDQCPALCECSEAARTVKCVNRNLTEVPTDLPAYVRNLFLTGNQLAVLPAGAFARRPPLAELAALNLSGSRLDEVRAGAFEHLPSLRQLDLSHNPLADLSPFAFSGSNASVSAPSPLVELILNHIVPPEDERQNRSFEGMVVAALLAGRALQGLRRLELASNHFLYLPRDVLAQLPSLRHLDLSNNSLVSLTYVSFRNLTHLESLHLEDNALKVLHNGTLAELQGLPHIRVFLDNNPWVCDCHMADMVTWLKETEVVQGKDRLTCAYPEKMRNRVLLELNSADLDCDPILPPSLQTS

T2: mouse 5T4 on transfected cells (mouse, UniProt Q9Z0L0 32-426)
T2 construct: whole, on cells; also called murine 5T4
T2 sequence (looked up): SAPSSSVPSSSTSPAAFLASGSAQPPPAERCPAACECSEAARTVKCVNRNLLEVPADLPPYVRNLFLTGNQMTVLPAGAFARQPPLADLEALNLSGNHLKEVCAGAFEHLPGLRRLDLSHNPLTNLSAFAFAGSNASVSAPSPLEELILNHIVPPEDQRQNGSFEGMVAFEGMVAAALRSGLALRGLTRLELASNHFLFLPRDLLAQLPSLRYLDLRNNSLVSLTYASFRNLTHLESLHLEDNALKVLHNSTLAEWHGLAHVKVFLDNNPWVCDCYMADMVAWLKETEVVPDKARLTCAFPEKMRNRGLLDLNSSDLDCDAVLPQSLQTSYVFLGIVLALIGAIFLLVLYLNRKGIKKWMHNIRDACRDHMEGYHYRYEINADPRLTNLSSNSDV

T3: cynomolgus 5T4 on transfected CHO cells (Macaca mulatta (cynomolgus), UniProt F7CT46 35-420)
T3 construct: also called cyno5T4; cy5T4
T3 sequence: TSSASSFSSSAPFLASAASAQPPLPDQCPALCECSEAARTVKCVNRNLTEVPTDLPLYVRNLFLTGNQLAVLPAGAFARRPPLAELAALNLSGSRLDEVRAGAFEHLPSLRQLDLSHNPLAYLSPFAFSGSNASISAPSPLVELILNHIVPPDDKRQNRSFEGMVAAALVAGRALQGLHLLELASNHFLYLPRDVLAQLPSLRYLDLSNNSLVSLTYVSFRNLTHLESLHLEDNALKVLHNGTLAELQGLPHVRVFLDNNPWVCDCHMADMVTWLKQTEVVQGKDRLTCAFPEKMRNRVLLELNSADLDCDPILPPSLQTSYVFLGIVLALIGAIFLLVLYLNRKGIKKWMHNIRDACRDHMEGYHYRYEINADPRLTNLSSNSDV

T4: 5T4 (SPR antigen) (UniProt Q13641 32-355, limits assumed, biotinylated on the MASS-1 platform)
T4 construct: also called biotinylated 5T4
T4 sequence (looked up): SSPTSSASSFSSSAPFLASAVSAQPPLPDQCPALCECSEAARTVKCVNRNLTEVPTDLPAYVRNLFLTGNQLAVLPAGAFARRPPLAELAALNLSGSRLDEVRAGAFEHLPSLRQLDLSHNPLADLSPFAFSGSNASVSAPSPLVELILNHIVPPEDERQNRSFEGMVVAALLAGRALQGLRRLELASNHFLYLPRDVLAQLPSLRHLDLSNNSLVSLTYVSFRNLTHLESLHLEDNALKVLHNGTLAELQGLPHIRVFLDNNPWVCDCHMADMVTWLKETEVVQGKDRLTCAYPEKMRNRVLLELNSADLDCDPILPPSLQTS


What was measured:
5T4-Fc = target: T1, 5T4-Fc; test: ELISA, coated 5T4-Fc
Method: ELISA was performed using a standard protocol. Plates (#655074, Greiner Bio-One GmbH, Germany) were pre-coated with 0.5 μg/ml 5T4-Fc (obtained from Peter L. Stern, University of Manchester) overnight. 5T4 antibodies were diluted from 6 to 1.5×10⁻³ μg/ml in 1:4 dilutions and added in duplicates of 50 μl to each well. Binding was detected with rabbit anti-h kappa L-chain-HRP (P0129, Dako Denmark) and the ELISA was developed with SuperSignal ELISA PICO Chemiluminescent substrate (Thermo Scientific Pierce, Rockford, Ill. USA) for 2-10 minutes and read in an automated microplate based multi-detection reader (FLUOstar OPTIMA, Netherlands).

[1] = target: T2, mouse 5T4 on transfected cells; test: flow cytometry, mouse 5T4-transfected cells
[2] = target: T3, cynomolgus 5T4 on transfected CHO cells; test: flow cytometry, 5T4-transfected CHO cells
Method: (§1) The potency of 5T4 antibodies in binding to cynomolgus 5T4 was determined by flow cytometry. CHO cells were stably transfected with […] (cynomolgus) 5T4. […] Samples were analysed either on a FACSCalibur or a FACSverse (BD Biosciences, Heidelberg, Germany) and mean fluorescence intensity (MFI) determined. […] To compare the EC50 values between human and cynomolgus 5T4, the cy5T4/hu5T4 ratio was calculated from the experiment with the full dose-response.

[3] = target: T5, human/mouse 5T4 chimera E1; test: flow cytometry, cells with human/mouse 5T4 chimera
T5 construct: on transfected CHO cells
Method: (§2) Epitope mapping was performed by investigation of loss of binding by the antibodies using a panel of human/mouse chimeric 5T4 constructs by flow cytometry. […] Two strategies were used for the epitope mapping as illustrated in FIG. 5. In one approach, seven human/mouse 5T4 chimeras were constructed based on dividing 5T4 into seven different domains (FIG. 5). By replacing each domain with the corresponding mouse sequence seven human/mouse 7 5T4 human/mouse chimeras were generated. The chimeras were generated using the human protein 5T4 sequence NP_006661.1 (reference mRNA sequence NM_006670.4) and the corresponding mouse sequence NP_035757.2 (reference mRNA sequence NM_011627.4). The human/mouse chimeric DNA constructs, as well as human and mouse wild-type 5T4, were cloned into pcDNA3.1 expression vectors. […] As controls human 5T4 and mouse 5T4-transfected cells were used. For flow cytometric analysis, cells were stained with different 5T4 antibodies diluted in FACS buffer (PBS, 0.5% BSA). […] Samples were analysed by FACSverse (BD Biosciences, Heidelberg, Germany) and % positive cells were determined. To compensate for variations in % 5T4 positive cells in the various transfected populations, binding levels were normalized within each chimera by dividing % positive cells for each clone with % positive cells for the clones resulting in the highest % positive cells (% pos cellscloneX/% positive cellsₘₐₓ). A normalized value ≤0.75 was defined as mAb binding being dependent on the replaced region, whereas a normalized value ≤0.25 was defined as complete dependence.

[4] = target: T6, human/mouse 5T4 chimera E4; test: flow cytometry, cells with human/mouse 5T4 chimera
T6 construct: on transfected CHO cells
Method: as §2

[5] = target: T7, human/mouse 5T4 chimera E5; test: flow cytometry, cells with human/mouse 5T4 chimera
T7 construct: on transfected CHO cells
Method: as §2

[6] = target: T8, human/mouse 5T4 chimera E7; test: flow cytometry, cells with human/mouse 5T4 chimera
T8 construct: on transfected CHO cells
Method: as §2

[7] = target: T3, cynomolgus 5T4 on transfected CHO cells; test: flow cytometry, cynomolgus 5T4-transfected CHO cells
Method: as §1

5T4 (SPR antigen) = target: T4, 5T4 (SPR antigen); test: SPR MASS-1, biotinylated 5T4 on streptavidin chip, mAb injected (bivalent)
Method: Binding kinetics of the 5T4-specific mAbs have been studied using two different SPR-based platforms, the Biacore 3000 (GE Healthcare) and the MASS-1 platform (Sierra Sensors). Briefly, 5T4 was captured at the sensor chip surface either via direct amine coupling (Biacore platform) or using a streptavidin coated chip and biotinylated 5T4 (MASS-1 platform). The different 5T4-specific mAbs were then injected over the chip in increasing concentrations and the association and dissociation rates studied in real time. A 1:1 Langmuir model was used for curve fitting.

EC50 (5T4-Fc) [nM]	binding result [1]	Ratio EC50cyno5T4/h5T4 [2]	normalized % positive cells [3]	normalized % positive cells [4]	normalized % positive cells [5]	normalized % positive cells [6]	EC50 [7] [nM]	koff (5T4 (SPR antigen)) [s⁻¹]	kon (5T4 (SPR antigen)) [M⁻¹ s⁻¹]	Binder
0.48	no binding	0.9	0.99	0.69	0.89	0.96	0.7	0.00019	510000	1210/1211 (antibody, V domains shown) VH: not shown VL: DIQMTQSPSSLSASVGDRVTITCRASQSISSYLNWYQQKPGKAPKLLIYAASSLQSGVPSRFSGSGSGTDFTLTISSLQPEDFATYYCQQTYGYLHTFGQGTKLEIK
0.64	no binding	3	0.96	0.52	0.9	0.94	1.53	0.00013	1.4e+06	1206/1207 (antibody, V domains shown) VH: EVQLLESGGGLVQPGGSLRLSCAASGFTFSGSSMSWVRQAPGKGLEWVSSIYYSGSGTYYADSVKGRFTISRDNSKNTLYLQMNSLRAEDTAVYYCARYGRNVHPYNLDYWGQGTLVTVSS VL: DIQMTQSPSSLSASVGDRVTITCRASQSISSYLNWYQQKPGKAPKLLIYAASSLQSGVPSRFSGSGSGTDFTLTISSLQPEDFATYYCQQGYYYLPTFGQGTKLEIK
